How the values were obtained:
Chimpanzee PBMCs = experiment: Mediator induction in chimpanzee PBMCs (ELISA of supernatants); type: cell-based
Protocol: Chimpanzee or human PBMCs were isolated and treated with either control media, human IL-18 at 100 ng/ml, or IL-18 (100 ng/ml) in combination with IL-2 at 3 ng/ml. Supernatants were frozen following incubation for 24, 48, 72, or 96 hours. Mediator levels were analyzed by ELISA. […] Moreover there is synergy between IL-2 and IL-18 at inducing GM-CSF, IL-8, Neopterin, and IFN-gamma (FIGS. 9 and 10). These observations were confirmed in multiple chimp and human donors.
The highest protein levels were detected in samples obtained 96 hours post-treatment, with the exception of IFN-gamma that reached a maximum level at 24 hours.
In this study, treatment with IL-2 alone was used as control.

Hepatitis B Virus (HBV) = experiment: HBV transgenic mice, liver HBV DNA by Southern blot; type: in vivo; conditions: Day 3
Protocol: HBV transgenic mice (Guidotti et. al, 1995. J. Virol 69:6158-6169) were treated with three daily subcutaneous injections (Days 0, 1 and 2) of 4 different doses (100, 10, 1 and 0.1 microgram) of recombinant murine IL-18, with analysis of the liver for HBV DNA on Day 3 by Southern blot.

TNF-α, IFN-γ, and GM-CSF = experiment: Cytokine protein induction in uninfected mice (ELISA of sera and spleen homogenates); type: in vivo, Female Balb/C mice
[1] = test system: GM-CSF, IFN-gamma, and TNF mRNA; experiment: Cytokine mRNA induction in spleens of uninfected mice (quantitative real-time PCR); type: in vivo, Female Balb/C mice
HSV-1 (SC-16) = experiment: Lethal systemic HSV infection model; type: in vivo, mice
Protocol: Several studies evaluated the effect of murine IL-18 in a lethal systemic HSV infection model. Murine IL-18 was administered IP at −2 hours, 24 hours, and 48 hours following IP infection with HSV-1 (SC-16). IL-18 treatment at 10-ug/mouse lead to 40% survival in all studies, relative to no survival of vehicle treated animals (FIG. 5). […] In a single study, two daily doses of IL-18 at 100 ug/mouse lead to 70% survival (not shown).

[2] = post-treatment, IL-18 100 ng/ml

“human IL-18: human IL-18, amino acid sequence SEQ ID NO:1; 157 amino acid cytokine, interferon-γ-inducing factor” gave an IL-8 induction (Chimpanzee PBMCs; IL-18 100 ng/ml, FIG. 9(a), donor species of FIG. 9 not given) of 14 fold, a Neopterin induction (Chimpanzee PBMCs; IL-18 100 ng/ml, FIG. 9(b), donor species of FIG. 9 not given) of 7 fold and a GM-CSF induction (Chimpanzee PBMCs; IL-18 100 ng/ml, FIG. 9(c), donor species of FIG. 9 not given) of 100 fold. For the same molecule, the IFN-gamma induction (Chimpanzee PBMCs; IL-18 100 ng/ml, FIG. 9(d), donor species of FIG. 9 not given) was 8 fold, the “inducing cytokine expression in chimp PBMCs” value (Chimpanzee PBMCs; human IL-18 100 ng/ml, 24-96 hours) was “active” and the “time of highest protein levels (IL-8, Neopterin, GM-CSF)” value (Chimpanzee PBMCs; [2]) was 96 h. The “time of maximum IFN-gamma level” value (Chimpanzee PBMCs; [2]) was 24 h.

B1: murine IL-18: murine IL-18, amino acid sequence SEQ ID NO:2; interferon-γ-inducing factor cytokine (protein, listed as Mus musculus)
chain: NFGRLHCTTAVIRNINDQVLFVDKRQPVFEDMTDIDQSASEPQTRLIIYMYKDSEVRGLAVTLSVKDSKMSTLSCKNKIISFEEMDPPENIDDIQSDLIFFQKRVPGHNKMEFESSLYEGHFLACQKEDDAFKLILKKKDENGDKSVMFTLTNLHQS
B1 was tested, and the “reduction of liver HBV DNA at lowest dose” value (Hepatitis B Virus (HBV); 0.1 micrograms sc Days 0, 1, 2) was “some reduction”, the “reduction of liver HBV DNA at higher doses” value (Hepatitis B Virus (HBV); 1, 10, 100 microgram sc Days 0, 1, 2) was “greater reductions” and the “virus replication (levels of viral DNA in liver)” value (Hepatitis B Virus (HBV); three daily sc injections, 100, 10, 1 and 0.1 microgram) was “dose-dependent reduction”. For the same molecule, the “induction of GM-CSF protein” value (TNF-α, IFN-γ, and GM-CSF; IP 10 or 100 ug) was “no induction”, the “IFN levels in sera and spleens” value (TNF-α, IFN-γ, and GM-CSF; IP 10 or 100 ug murine IL-18, by 2.5 hours post-treatment) was 2 ng/mL and the “induction of TNF-α protein” value (TNF-α, IFN-γ, and GM-CSF; IP 10 or 100 ug, called minimal induction) was 100 pg/mL. The “IFN γ mRNA induction over vehicle” value ([1]; 2.5-6 hours post injection, real-time PCR, spleen) was “up to 20 fold”, the “TNF mRNA induction” value ([1]; quantitative real-time PCR) was “observed” and the “GM-CSF mRNA induction relative to vehicle control” value ([1]; real-time PCR, data not shown) was 6-10 fold. The survival (HSV-1 (SC-16); 10-ug/mouse IP at -2, 24 and 48 hours, vehicle: no survival) was 40%, the time to death (HSV-1 (SC-16); all studies) was “delay in time to death” and the survival (HSV-1 (SC-16); two daily doses at 100 ug/mouse, single study, not shown) was 70%.

Source: patent US20030113292A1, “Methods of treating viral diseases with il-18 and il-18 combinations” (priority 2000, published 2003)
